Consider 39 variants from the RNAGym collection of RNA variant scans (doi:10.7554/elife.90254).

To fix the notation:
B1: LINE1-full (parent)
chain: UACGUAGGUGGUUUUCCCCUGAUAGUGCUAAGGGGGCCUGGAAGUUUGGACUGGGCAGAGCUCAACACAGCGUGGCAAAGUGGCUGUGGCUAGACUGCCUCUCUGGAUUCCUCGUCACUCAGCAGGGCAUCUCUGAGAGAAAUGCC

The variants in this data set derive from B1. The data set is described as follows: self-cleavage, relative activity (ratio to wild type); higher = more cleavage; in vitro, sequencing; the parent is a self-cleaving ribozyme.
In the case of UACGUAGGUGGUUUUCCCCUGAUAGUGCUAAGGGGGCCUGGAAGUUUGGACCGGGCAGAGCUCAACACAGCGUGGCAAAGUGGCUGUGGCUAGACUGCAUCUCUGGAUUCCUCGUCACUCAGCAGGGCAUCUCUGAGAGAAAUGCC, the self-cleavage was 0.27.
For the variant UACGUAGGUGGUUUUCCCCUGAUAGUGCUAAGGGGGCCUGGAAGUUUGGACCGGGCAGAGCUCAACACAGCGUGGCAAAGUGGCUGUGGCUAGACUGCUUCUCUGGAUUCCUCGUCACUCAGCAGGGCAUCUCUGAGAGAAAUGCC, the self-cleavage was 0.64.
Consider UACGUAGGUGGUUUUCCCCUGAUAGUGCUAAGGGGGCCUGGAAGUUUGGACCGGGCAGAGCUCAACACAGCGUGGCAAAGUGGCUGUGGCUAGACUGCCUCACUGGAUUCCUCGUCACUCAGCAGGGCAUCUCUGAGAGAAAUGCC, for which the self-cleavage amounted to 0.87.
Then UACGUAGGUGGUUUUCCCCUGAUAGUGCUAAGGGGGCCUGGAAGUUUGGACCGGGCAGAGCUCAACACAGCGUGGCAAAGUGGCUGUGGCUAGACUGCCUCCCUGGAUUCCUCGUCACUCAGCAGGGCAUCUCUGAGAGAAAUGCC, with 1.14; and UACGUAGGUGGUUUUCCCCUGAUAGUGCUAAGGGGGCCUGGAAGUUUGGACCGGGCAGAGCUCAACACAGCGUGGCAAAGUGGCUGUGGCUAGACUGCCUCUCUGGAUUCCUCGUCACUCAGCAGGGCAUCUCUGAGAAAAAUGCC, with 0.78; and UACGUAGGUGGUUUUCCCCUGAUAGUGCUAAGGGGGCCUGGAAGUUUGGACCGGGCAGAGCUCAACACAGCGUGGCAAAGUGGCUGUGGCAAGACUGCCUCUCUGGAUUCCUCGUCACUCAGCAGGGCAUCUCUGAGAGAAAUGCC, with 0.49.
With UACGUAGGUGGUUUUCCCCUGAUAGUGCUAAGGGGGCCUGGAAGUUUGGACCGGGCAGAGCUCAACACAGCGUGGCAAAGUGGCUGUGGCCAGACUGCCUCUCUGGAUUCCUCGUCACUCAGCAGGGCAUCUCUGAGAGAAAUGCC, the self-cleavage was 0.67.
Then UACGUAGGUGGUUUUCCCCUGAUAGUGCUAAGGGGGCCUGGAAGUUUGGACCGGGCAGAGCUCAACACAGUGUGGCAAAGUGGCUGUGGCUAGACUGCCUCUCUGGAUUCCUCGUCACUCAGCAGGGCAUCUCUGAGAGAAAUGCC, with 0.7.
Then UACGUAGGUGGUUUUCCCCUGAUAGUGCUAAGGGGGCCUGGAAGUUUGGACCGGGCAGAGCUCAACACAGCGUGGCAAAGUGGCUGUGGCUAGACUGCCUCUCUAGAUUCCUCGUCACUCAGCAGGGCAUCUCUGAGAGAAAUGCC, with 1.17; and UACGUAGGUGGUUUUCCCCUGAUAGUGCUAAGGGGGCCUGGAAGUUUGGACCGGGCAGAGCACAACACAGCGUGGCAAAGUGGCUGUGGCUAGACUGCCUCUCUGGAUUCCUCGUCACUCAGCAGGGCAUCUCUGAGAGAAAUGCC, with 0.08; and UACGUAGGUGGUUUUCCCCUGAUAGUGCUAAGGGGGCCUGGAAGUUUGGACCGGGCAGAGCCCAACACAGCGUGGCAAAGUGGCUGUGGCUAGACUGCCUCUCUGGAUUCCUCGUCACUCAGCAGGGCAUCUCUGAGAGAAAUGCC, with 0.03.
For the variant UACGUAGGUGGUUUUCCCCUGAUAGUGCUAAGGGGGCCUGGAAGUUUGGACCGGGCAGAACUCAACACAGCGUGGCAAAGUGGCUGUGGCUAGACUGCCUCUCUGGAUUCCUCGUCACUCAGCAGGGCAUCUCUGAGAGAAAUGCC, the self-cleavage worked out at 0.03.
As for UACGUAGGUGGUUUUCCCCUGAUAGUGCUAAGGGGGCCUGGAAGUUUGGACCAGGCAGAGCUCAACACAGCGUGGCAAAGUGGCUGUGGCUAGACUGCCUCUCUGGAUUCCUCGUCACUCAGCAGGGCAUCUCUGAGAGAAAUGCC, the self-cleavage came out at 0.6.
Then UACGUAGGUGGUUUUCCCCUGAUAGUGCUAAGGGGGCCUGGAAGUUUGGACCGGGCAGAGCUCAACACAGCGUGGCAAAGUGGCUGCGGCUAGACUGCCUCUCUGGAUUCCUCGUCACUCAGCAGGGCAUCUCUGAGAGAAAUGCC, with 0.11; and UACGUAGGUGGUUUUCCCCUGAUAGUGCUAAGGGGGCCUGGAAGUUUGGACCGGGCAGAGCUCAACACAGCGUGGCAAAGUGGCUGUGGCUAGAGUGCCUCUCUGGAUUCCUCGUCACUCAGCAGGGCAUCUCUGAGAGAAAUGCC, with 0.09; and UACGUAGGUGGUUUUCCCCUGAUAGUGCUAAGGGGGCCUGGAAGUUUGGACCGGGCAGAGCUCAACACAGCGUGGCAAAGUGACUGUGGCUAGACUGCCUCUCUGGAUUCCUCGUCACUCAGCAGGGCAUCUCUGAGAGAAAUGCC, with 0.53.
For the variant UACGUAGGUGGUUUUCCCCUGAUAGUGCUAAGGGGGCCUGGAAGUUUGGACCGGGCAGAGCUCAACACAGCGUGGCAAAGUGGCUGUGGCUAGACAGCCUCUCUGGAUUCCUCGUCACUCAGCAGGGCAUCUCUGAGAGAAAUGCC, the self-cleavage is 0.1.
Then UACGUAGGUGGUUUUCCCCUGAUAGUGCUAAGGGGGCCUGGAAGUUUGGACCGGGCAGAGCUCAACACAGCGUGGCAAAGUGGCUGUGGCUAGACUGCCUCUCCGGAUUCCUCGUCACUCAGCAGGGCAUCUCUGAGAGAAAUGCC, with 1.1; and UACGUAGGUGGUUUUCCCCUGAUAGUGCUAAGGGGGCCUGGAAGUUUGGACCGGGCAGAGCUCAACACAGCGUGGCAAAGUGGCUGUGGCUAGACUGCCUCUCAGGAUUCCUCGUCACUCAGCAGGGCAUCUCUGAGAGAAAUGCC, with 1.02.
As to UACGUAGGUGGUUUUCCCCUGAUAGUGCUAAGGGGGCCUGGAAGUUUGGACCGGGCAGAGCUCAACACAGCGUGGCAAAGUGGCUGUAGCUAGACUGCCUCUCUGGAUUCCUCGUCACUCAGCAGGGCAUCUCUGAGAGAAAUGCC, the self-cleavage was 0.04.
Then UACGUAGGUGGUUUUCCCCUGAUAGUGCUAAGGGGGCCUGGAAGUUUGGACCGGGCAGAGCUCAACACAGCGUGGCAAAGUGGGUGUGGCUAGACUGCCUCUCUGGAUUCCUCGUCACUCAGCAGGGCAUCUCUGAGAGAAAUGCC, with 0; and UACGUAGGUGGUUUUCCCCUGAUAGUGCUAAGGGGGCCUGGAAGUUUGGACCGGGCAGAGCUCAACACAGCGUGGCAAAGUGGCUGUGGCUAGACUGCCUCUCUGGAUUCCUAGUCACUCAGCAGGGCAUCUCUGAGAGAAAUGCC, with 0.99; and UACGUAGGUGGUUUUCCCCUGAUAGUGCUAAGGGGGCCUGGAAGUUUGGACCGGGCAGAGCUCAACACAGCGUGGCAAAGUGGCUGUGGCUAGACUGCCUCUCUGGAUUCCUCGUCACUCAGCAGGGCAUCUCUGAGAGUAAUGCC, with 1.15.
For UACGUAGGUGGUUUUCCCCUGAUAGUGCUAAGGGGGCCUGGAAGUUUGGACCGGGCAGAGCUCAACACAGCGUGGCAAAGUGGCUGUGGCUAGACUGCCUCUCUGGAUUCCUCAUCACUCAGCAGGGCAUCUCUGAGAGAAAUGCC, the self-cleavage is 1.24.
As to UACGUAGGUGGUUUUCCCCUGAUAGUGCUAAGGGGGCCUGGAAGUUUGGACCGGGUAGAGCUCAACACAGCGUGGCAAAGUGGCUGUGGCUAGACUGCCUCUCUGGAUUCCUCGUCACUCAGCAGGGCAUCUCUGAGAGAAAUGCC, the self-cleavage was 0.11.
Then UACGUAGGUGGUUUUCCCCUGAUAGUGCUAAGGGGGCCUGGAAGUUUGGACCGGGCAGAGCUCAACACAGCGUGGCAAAGUGGCUGUGGCUAGACUGCCUCUCUGGAUUCCUCGACACUCAGCAGGGCAUCUCUGAGAGAAAUGCC, with 1.34; and UACGUAGGUGGUUUUCCCCUGAUAGUGCUAAGGGGGCCUGGAAGUUUGGACCGAGCAGAGCUCAACACAGCGUGGCAAAGUGGCUGUGGCUAGACUGCCUCUCUGGAUUCCUCGUCACUCAGCAGGGCAUCUCUGAGAGAAAUGCC, with 0.74; and UACGUAGGUGGUUUUCCCCUGAUAGUGCUAAGGGGGCCUGGAAGUUUGGACCGGGCAGAGCUCAACACAGCGUGGCAAAGUGGCUGUGGCUAGACUGCCUCUCUGGAUCCCUCGUCACUCAGCAGGGCAUCUCUGAGAGAAAUGCC, with 0.69.
Then UACGUAGGUGGUUUUCCCCUGAUAGUGCUAAGGGGGCCUGGAAGUUUGGACCGGGCAGAGCUCAACACAGCGUGGCAAAGUGGCUGUGGCUAGACUGCCUCUCUGGAUACCUCGUCACUCAGCAGGGCAUCUCUGAGAGAAAUGCC, with 1.6; and UACGUAGGUGGUUUUCCCCUGAUAGUGCUAAGGGGGCCUGGAAGUUUGGACCGGGCAGAGCUCAACACAGCGUGGCAAAGUGGCUGUGACUAGACUGCCUCUCUGGAUUCCUCGUCACUCAGCAGGGCAUCUCUGAGAGAAAUGCC, with 0.05.
In the case of UACGUAGGUGGUUUUCCCCUGAUAGUGCUAAGGGGGCCUGGAAGUUUGGACCGGGCAGAGCUCAACACAGCGUGGCAAAGGGGCUGUGGCUAGACUGCCUCUCUGGAUUCCUCGUCACUCAGCAGGGCAUCUCUGAGAGAAAUGCC, the self-cleavage stood at 1.31.
With UACGUAGGUGGUUUUCCCCUGAUAGUGCUAAGGGGGCCUGGAAGUUUGGACCGGGCAGAGCUCAACACAGCGUGGCAAAGCGGCUGUGGCUAGACUGCCUCUCUGGAUUCCUCGUCACUCAGCAGGGCAUCUCUGAGAGAAAUGCC, the self-cleavage came to 1.08.
Then UACGUAGGUGGUUUUCCCCUGAUAGUGCUAAGGGGGCCUGGAAGUUUGGACCGGGCAGAGCUCAACACAGCGUGGCAAAGUGGCAGUGGCUAGACUGCCUCUCUGGAUUCCUCGUCACUCAGCAGGGCAUCUCUGAGAGAAAUGCC, with 0.13.
Then UACGUAGGUGGUUUUCCCCUGAUAGUGCUAAGGGGGCCUGGAAGUUUGGACCGGGCAGAGCUCAACACAGCGUGGCAAAGUGGCCGUGGCUAGACUGCCUCUCUGGAUUCCUCGUCACUCAGCAGGGCAUCUCUGAGAGAAAUGCC, with 0.31.
As for UACGUAGGUGGUUUUCCCCUGAUAGUGCUAAGGGGGCCUGGAAGUUUGGACCGGGCAGAGCUCAACACAGCGUGGCAAAGUGGCUGUGGCUAGACUGCCUCUCUGGAUUCCCCGUCACUCAGCAGGGCAUCUCUGAGAGAAAUGCC, the self-cleavage is 1.5.
Then UACGUAGGUGGUUUUCCCCUGAUAGUGCUAAGGGGGCCUGGAAGUUUGGACCGGGCAGAGCUCAACACAGCGUGGCAAAGUGGCUGUGGCUAGACUGCCUCUCUGGAUUCCUCGUCACACAGCAGGGCAUCUCUGAGAGAAAUGCC, with 1.16.
Then UACGUAGGUGGUUUUCCCCUGAUAGUGCUAAGGGGGCCUGGAAGUUUGGACCGGGCAGAGCUCAACACAGCGUGGCAAAGUGGCUGUGGCUAGACUGCCUGUCUGGAUUCCUCGUCACUCAGCAGGGCAUCUCUGAGAGAAAUGCC, with 1.31; and UACGUAGGUGGUUUUCCCCUGAUAGUGCUAAGGGGGCCUGGAAGUUUGGACCGGGCAGAGCUCAACACAGCGUGGCAAAGUGGCUGUGGCUAGACUGCCUCUCUGGAUUCCUCGUUACUCAGCAGGGCAUCUCUGAGAGAAAUGCC, with 1.39; and UACGUAGGUGGUUUUCCCCUGAUAGUGCUAAGGGGGCCUGGAAGUUUGGACCGGGCAGAGCUCAACACAGCGUGGCAAAGUGGCUGUGGCUAGACUGACUCUCUGGAUUCCUCGUCACUCAGCAGGGCAUCUCUGAGAGAAAUGCC, with 0.1.
